These results are taken from patent US11278600B2, “Human alpha-galactosidase variants” (Codexis, Inc., priority 2014, dated 2022).

Positions count from the first letter of the chain named.

Common to all, as to assay type: biochemical
The nature of data set [1]: HTP-analysis of supernatants pretreated with base (MUGal hydrolysis). The note with it: activity of the variant/activity of Rd4BB (SEQ ID NO: 15); challenge at pH 9.65. In short, it runs like this: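 GLA variants secreted from yeast INVSc1; culture supernatants pre-incubated with McIlvaine buffer pH 7.0–8.2 or 200 mM bicarbonate pH 9.1–9.7 at 37° C. for 1–18 h. Residual activity: MUGal (4 mM stock) hydrolysis at pH 4.3–4.8, 37° C., 30–180 min, carbonate quench; fluorescence Ex 355/Em 448 nm.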

A short description of data set [2]: HTP-analysis of yeast culture supernatants, no challenge (MUGal hydrolysis). The note with it: activity of the variant/activity of Rd4BB (SEQ ID NO: 15). In short, it runs like this: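 Activity read as 4-methylumbelliferyl α-D-galactopyranoside hydrolysis: fluorescence (355/448 nm) after sodium carbonate stop, following 30-180 min at 37° C with 2 mM MUGal stock at pH 4.6–4.8. Enzyme source is unchallenged culture supernatant of INVSc1 yeast expressing GLA variants, grown 66-84 h at 30° C.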

Data set [3] in a line: HTP-analysis of supernatants pretreated with acid (MUGal hydrolysis). The note with it: activity of the variant/activity of Rd4BB (SEQ ID NO: 15); challenge at pH 3.7. In short, it runs like this:
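Supernatants from INVSc1 yeast secreting GLA variants were challenged at 37° C. for 1-3 h in McIlvaine buffer at pH 3.3-4.3. Residual activity was then measured on 4 mM MUGal substrate stock at pH 4.8 with citrate buffer pH 4.3, over 30-180 min at 37° C. Reactions were quenched with sodium carbonate and read by fluorescence (Ex 355/Em 448 nm).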

B1: 424 (protein)
chain: LDNGLARTPTMGWLHWERFMCNLDCQEEPDSCISEKLFMEMAERMVSEGWKDAGYEYLCIDDCWMAPQRDSEGRLQADPQRFPHGIRQLANYVHSKGLKLGIYADVGNKTCAGFPGSFGYYDIDAQTFADWGVDLLKFDGCYCDSLENLADGYKHMSLALNRTGRSIVYSCEWPLYMWPFQKPNYTEIRQYCNHWRNFADIDDSWKSIKSILDWTSRNQERIVDVAGPGGWNDPDMLVIGNFGLSWDQQVTQMAEWAIMAAPLFMSNDLRHISPQAKALLQDKDVIAINQDPLGKQGYQLRKGDNFEVWERPLSGDAWAVAIINRQEIGGPRSYTIPVASLGKGVACNPACFITQLLPVKRQLGFYNWTSRLKSHINPTGTVLLQLENTMQMSLKDLL
modifications: Synthetic Polypeptide sequence of Variant No. 424 of mature Human GLA
Take B1: the “Relative Activity of GLA Variants After Challenge at pH 9.65” value (shortened to “Relative Activity … at pH 9.65”) in data set [1] is reported as “− (<0.5 relative activity over Rd4BB (SEQ ID NO: 15))”. The “Relative Activity of GLA Variants After No Challenge (NC)” value in data set [2] is “+ (0.5 to 1.5 relative activity over Rd4BB (SEQ ID NO: 15))”. For the same molecule, in data set [3], the “Relative Activity of GLA Variants After Challenge at pH 3.7” value (“Relative Activity … at pH 3.7” below) is “+ (0.5 to 1.5 relative activity over Rd4BB (SEQ ID NO: 15))”.

B2: 436 (protein)
chain: B1 chain with E255L, H271G
modifications: Synthetic Polypeptide sequence of Variant No. 436 of mature Human GLA
On to B2, for which the “Relative Activity … at pH 9.65” value in data set [1] was “− (<0.5 relative activity over Rd4BB (SEQ ID NO: 15))”. For the same molecule, in data set [2], the “Relative Activity of GLA Variants After No Challenge (NC)” value is reported as “+ (0.5 to 1.5 relative activity over Rd4BB (SEQ ID NO: 15))”. Moreover, in data set [3], the “Relative Activity … at pH 3.7” value is “− (<0.5 relative activity over Rd4BB (SEQ ID NO: 15))”.

B3: 364 (protein)
chain: B1 chain with M39H, E255L
modifications: Synthetic Polypeptide sequence of Variant No. 364 of mature Human GLA
B3: the “Relative Activity … at pH 9.65” value in data set [1] was “− (<0.5 relative activity over Rd4BB (SEQ ID NO: 15))”. Besides, the “Relative Activity of GLA Variants After No Challenge (NC)” value in data set [2] is “+ (0.5 to 1.5 relative activity over Rd4BB (SEQ ID NO: 15))”. Further, the “Relative Activity … at pH 3.7” value in data set [3] is reported as “+ (0.5 to 1.5 relative activity over Rd4BB (SEQ ID NO: 15))”.

B4: 430 (protein)
chain: B1 chain with E255L, H271T
modifications: Synthetic Polypeptide sequence of Variant No. 430 of mature Human GLA
Consider B4, for which the “Relative Activity … at pH 9.65” value in data set [1] is given as “+ (0.5 to 1.5 relative activity over Rd4BB (SEQ ID NO: 15))”. For the same molecule, the “Relative Activity of GLA Variants After No Challenge (NC)” value in data set [2] was “+ (0.5 to 1.5 relative activity over Rd4BB (SEQ ID NO: 15))”. Further, the “Relative Activity … at pH 3.7” value in data set [3] is reported as “− (<0.5 relative activity over Rd4BB (SEQ ID NO: 15))”.

B5: 435 (protein)
chain: B1 chain with E255L, I258L
modifications: Synthetic Polypeptide sequence of Variant No. 435 of mature Human GLA
In the case of B5, the “Relative Activity … at pH 9.65” value in data set [1] is listed as “− (<0.5 relative activity over Rd4BB (SEQ ID NO: 15))”. Further, the “Relative Activity of GLA Variants After No Challenge (NC)” value in data set [2] is “+ (0.5 to 1.5 relative activity over Rd4BB (SEQ ID NO: 15))”. Besides, the “Relative Activity … at pH 3.7” value in data set [3] is listed as “++ (>1.5 to 2.5 relative activity over Rd4BB (SEQ ID NO: 15))”.

B6: 429 (protein)
chain: B1 chain with E255C
modifications: Synthetic Polypeptide sequence of Variant No. 429 of mature Human GLA
Take B6: the “Relative Activity … at pH 9.65” value in data set [1] is “− (<0.5 relative activity over Rd4BB (SEQ ID NO: 15))”. Also, the “Relative Activity of GLA Variants After No Challenge (NC)” value in data set [2] was “+ (0.5 to 1.5 relative activity over Rd4BB (SEQ ID NO: 15))”. The “Relative Activity … at pH 3.7” value in data set [3] is listed as “+ (0.5 to 1.5 relative activity over Rd4BB (SEQ ID NO: 15))”.

B7: 434 (protein)
chain: B1 chain with E255L, R270D
modifications: Synthetic Polypeptide sequence of Variant No. 434 of mature Human GLA
Consider B7, for which, in data set [1], the “Relative Activity … at pH 9.65” value is recorded as “− (<0.5 relative activity over Rd4BB (SEQ ID NO: 15))”. Further, the “Relative Activity of GLA Variants After No Challenge (NC)” value in data set [2] is listed as “+ (0.5 to 1.5 relative activity over Rd4BB (SEQ ID NO: 15))”. In addition, the “Relative Activity … at pH 3.7” value in data set [3] was “− (<0.5 relative activity over Rd4BB (SEQ ID NO: 15))”.

B8: 431 (protein)
chain: B1 chain with E255L, R270G
modifications: Synthetic Polypeptide sequence of Variant No. 431 of mature Human GLA
On to B8, for which the “Relative Activity … at pH 9.65” value in data set [1] was “− (<0.5 relative activity over Rd4BB (SEQ ID NO: 15))”. In addition, the “Relative Activity of GLA Variants After No Challenge (NC)” value in data set [2] is listed as “+ (0.5 to 1.5 relative activity over Rd4BB (SEQ ID NO: 15))”. Also, in data set [3], the “Relative Activity … at pH 3.7” value is “− (<0.5 relative activity over Rd4BB (SEQ ID NO: 15))”.

B9: 433 (protein)
chain: B1 chain with E255L, H271Q
modifications: Synthetic Polypeptide sequence of Variant No. 433 of mature Human GLA
As for B9, in data set [1], the “Relative Activity … at pH 9.65” value is “+ (0.5 to 1.5 relative activity over Rd4BB (SEQ ID NO: 15))”. In data set [2], the “Relative Activity of GLA Variants After No Challenge (NC)” value is “+ (0.5 to 1.5 relative activity over Rd4BB (SEQ ID NO: 15))”. Moreover, the “Relative Activity … at pH 3.7” value in data set [3] is recorded as “+ (0.5 to 1.5 relative activity over Rd4BB (SEQ ID NO: 15))”.

B10: 432 (protein)
chain: B1 chain with E255L
modifications: Synthetic Polypeptide sequence of Variant No. 432 of mature Human GLA
Regarding B10, the “Relative Activity … at pH 9.65” value in data set [1] is “+ (0.5 to 1.5 relative activity over Rd4BB (SEQ ID NO: 15))”. Moreover, the “Relative Activity of GLA Variants After No Challenge (NC)” value in data set [2] is listed as “+ (0.5 to 1.5 relative activity over Rd4BB (SEQ ID NO: 15))”. Further, the “Relative Activity … at pH 3.7” value in data set [3] is given as “− (<0.5 relative activity over Rd4BB (SEQ ID NO: 15))”.

B11: 426 (protein)
chain: B1 chain with E255L, M259E
modifications: Synthetic Polypeptide sequence of Variant No. 426 of mature Human GLA
B11: the “Relative Activity … at pH 9.65” value in data set [1] is “− (<0.5 relative activity over Rd4BB (SEQ ID NO: 15))”. In addition, in data set [2], the “Relative Activity of GLA Variants After No Challenge (NC)” value was “+ (0.5 to 1.5 relative activity over Rd4BB (SEQ ID NO: 15))”. Besides, in data set [3], the “Relative Activity … at pH 3.7” value is reported as “− (<0.5 relative activity over Rd4BB (SEQ ID NO: 15))”.

B12: 427 (protein)
chain: B1 chain with E255L, L263G
modifications: Synthetic Polypeptide sequence of Variant No. 427 of mature Human GLA
Turning to B12, the “Relative Activity … at pH 9.65” value in data set [1] was “− (<0.5 relative activity over Rd4BB (SEQ ID NO: 15))”. Further, the “Relative Activity of GLA Variants After No Challenge (NC)” value in data set [2] is reported as “+ (0.5 to 1.5 relative activity over Rd4BB (SEQ ID NO: 15))”. The “Relative Activity … at pH 3.7” value in data set [3] was “− (<0.5 relative activity over Rd4BB (SEQ ID NO: 15))”.

B13: 437 (protein)
chain: B1 chain with E255L, L263E
modifications: Synthetic Polypeptide sequence of Variant No. 437 of mature Human GLA
For the molecule B13, in data set [1], the “Relative Activity … at pH 9.65” value is “− (<0.5 relative activity over Rd4BB (SEQ ID NO: 15))”. Further, in data set [2], the “Relative Activity of GLA Variants After No Challenge (NC)” value is on record as “+ (0.5 to 1.5 relative activity over Rd4BB (SEQ ID NO: 15))”. The “Relative Activity … at pH 3.7” value in data set [3] is “+ (0.5 to 1.5 relative activity over Rd4BB (SEQ ID NO: 15))”.

B14: 425 (protein)
chain: B1 chain with E255L, H271E
modifications: Synthetic Polypeptide sequence of Variant No. 425 of mature Human GLA
In the case of B14, in data set [1], the “Relative Activity … at pH 9.65” value is “+ (0.5 to 1.5 relative activity over Rd4BB (SEQ ID NO: 15))”. Further, the “Relative Activity of GLA Variants After No Challenge (NC)” value in data set [2] is “+ (0.5 to 1.5 relative activity over Rd4BB (SEQ ID NO: 15))”. Further, the “Relative Activity … at pH 3.7” value in data set [3] was “− (<0.5 relative activity over Rd4BB (SEQ ID NO: 15))”.

B15: 428 (protein)
chain: B1 chain with E255L, M259S
modifications: Synthetic Polypeptide sequence of Variant No. 428 of mature Human GLA
In the case of B15, in data set [1], the “Relative Activity … at pH 9.65” value was “− (<0.5 relative activity over Rd4BB (SEQ ID NO: 15))”. Besides, the “Relative Activity of GLA Variants After No Challenge (NC)” value in data set [2] was “+ (0.5 to 1.5 relative activity over Rd4BB (SEQ ID NO: 15))”. Moreover, the “Relative Activity … at pH 3.7” value in data set [3] is recorded as “+ (0.5 to 1.5 relative activity over Rd4BB (SEQ ID NO: 15))”.
